Measured values reported in the DeepSol protein solubility set.

Assay: soluble on expression in E. coli; label from the status in PepcDB or PDB records

Sequence | soluble on expression in E. coli
MKTRITELLKIDYPIFQGGMAWVADGDLAGAVSKAGGLGIIGGGNAPKEVVKANIDKIKSLTDKPFGVNIMLLSPFVEDIVDLVIEEGVKVVTTGAGNPSKYMERFHEAGIIVIPVVPSVALAKRMEKIGADAVIAEGMEAGGHIGKLTTMTLVRQVATAISIPVIAAGGIADGEGAAAGFMLGAEAVQVGTRFVVAKESNAHPNYKEKILKARDIDTTISAQHFGHAVRAIKNQLTRDFELAEKDAFKQEDPDLEIFEQMGAGALAKAVVHGDVDGGSVMAGQIAGLVSKEETAEEILKDLYYGAAKKIQEEASRWTGVVRND | not soluble
RCIKLYRARKGNAAVKRHMRDTLSLNDAVEKVRAVDAPLSKLAQEALQSYRNYRRNEASELAQALPLNEYLVIQIRNSMAQIMRRFD | not soluble
MSLSLLVIGSLAFDDIETPFGRSDNTLGGSSTYIALSASYFTDEPIRMVGVVGSDFGKEHFDLLHAKNIDTRGIQVIEDGKTFRWAGRYHYDMNTRDTLDTQLNVFAEFDPHVPQYYRDSKFVCLGNIDPELQLKVLDQIDDPKLVVCDTMNFWIEGKPEELKKVLARVDVFIVNDSEARLLSGDPNLVKTARIIREMGPKTLIIKKGEHGALLFTDNGIFAAPAFPLESIYDPTGAGDTFAGGFIGHLARCGNTSEAEMRKAVLYGSAMASFCVEQFGPYRYNDLDLLEVDDRYQSFLELSRIEEGHHHHHH | soluble
KKITRPIEKLSDTVSQMAKGQYDTRAKIKTDGEVGDLVNSFNIMADRLEKNIEELEDTARRQEDFTAAFAHELKTPLTSIIGYSDMMRSMDLEKEEISEYSNYIFLQGKRLEKLSFTLMDLISLDKQKIEFNRISTEKMFNDIEKTVEQMLREHNIRFKMSVEPAVIVGNEDLLKSLFMNIIDNGRKAISGQGIIALKAIKTEKGYTVFIQDNGCGMEKSEIKKITEAFYMIDKSRARKEGGAGIGMSLCKKIVSIHNAKWSVRSKPGKGTIISIVFQEGQN | not soluble
MSLQIAANKAVSIDYTLTNDAGDVIDSSAGGAPLVYLHGAGNIIVGLEKALEGKNVGDELSVAIEPEDAYGEYSAELVATLTREMFEGVDELEVGMQFHASAPDGGMQIVTIRDIDGDDVTVDGNHPLAGQRLNFKVKVVDVREANAEEIAHGHIHGEGGHHHEGGSHHHHHH | soluble
MTLTMGFIGFGKSANRYHLPYLKTRNNIKVKTIFVRQINEELAAPYEERGVYFTTDLDELLNDKEIQVVTICTPAHTHYELAKKVILAGKSVIVEKPFCDTVEHAKELLALGREKGVVVMPYQNRRFDGDFLAVKQVVEQGFLGDIIEIESHIDYFRPGSITHEAPKEEGSFYSLGIHTMDRMISLFGRPNTVTYDIRNNEVEGAVDNYFDVGLHYGNQLKIKLKTNHIVAKDYPRFIVHGTNGSFIKYGEDQQENDLKAGIMPESAGFGEDSPMYYGIAKYRNANGDWIEKQIKTPLGDYGRFYDAAYDTIVNGAPKLVKDEEAVTNIEILENGFAAPSPSVYKLEALHLNELEHHHHHH | soluble
MSITEDIDDLKTAIENNEPIRKGIEETMHRASQIRIKQRYNCAEQEVTQMRAPFLGFSVFVRFQSRARAHTIKIINEDEVEQMLASSPVPYS | not soluble
MRWVSALEKRNFLTSFLHNHRLKHPDARFVLKYLLQHPHLLENVQFTETEQKQGRWLIISTAMAEEEGLVFYRRGQKSTSLAAIMGDLALHPNEPLYLTLHFPGKARNFSYLRLIDHQAFENVRRHERHEKMAKAAEQVLDEALKRHEVSILKMQIDQALDRKDMEWFQMLTEQLKKYEGQS | not soluble
MGSDKIHHHHHHMMQIYLVGGAVRDQLLGLPIKDRDWLVVGSTAEELLSQGYQQVGKDFPVFLNPNTREEYALARTERKSGTGYTGFICDFNPDITLEQDLMRRDLTINAIAQDMAGQYHDPYNGIADLKKGILRHISPAFAEDPLRVLRVARFAARYHQLGFKIAPNTLALMKKIANNGELRQLSPERVWQETEKALHEQDPQVYFAILQKIDALKVLCPEISVFNSDSIQYRSDMTDFVHAMPILKQTTLLTEKTDYHKSAVRFAALCHDVGKALSTANIPPYSHDNKITSIAYLRNVCQRFKVPNYVQELAELTCQYHSHIHHALALHTKTILTLFNKLDVWRKPKRFEELMLVCLADSLTQTEMNYTDYPQYKFLLCLYQAALAVDVQQIISEGFQHKAIRVELDRRREIAIQIKKQQFIEQNLT | not soluble
MSLNIAKGEPVKITTIDVGNKSFPVKITFIDRKGVSYYIDVAMSRTNSGMEPADFQAEKRINYFPNAFSFTNPDVKTRESIQSKYIGQSVYPQKTIRVKQTELLRYTPLHIKDVQPEKAGTSATLLLTDIQGNTYQVKVDLKYDPILKNEDFIEDLFGFSDIRKKYPNISESNWLMLAKGEVKPGMTTEECKLAIGEPIEIRVRTDTRFETWLYRGKILEFENGILLRAKEGHHHHHH | soluble
MGSDKIHHHHHHMKIGIVTFHRALNYGAVLQACAMRRIFSDHGEVEMVDYWPDYHSSHYSLLDTRFLNKNQSLSSRVRLLKSAIKRIILLPVRLKRNKKFLSFIDSNIVKVSNAPIKLANKIPDYFDVVVYGSDQIWRVYDFDNYPRPDMVYMGAGVLDGTRKIAFAASMGDVNVDTLCDDSVIKALKNFEHINVREQALSESLLKHSGLSSCVVLDPTFLVSSDVWKRMAETIPRNRKDNKYALFYSLIPSEESIRIAKNIAEEKGVELVEINGFETIGGLFNKSVAQSAGPLDFLELIMNAEFIVSTSFHGVVFSIIFEKQFCACGMKGHSERVRSLLSKLSIEDRLIDTVEQLESLGEIDYKEVTKLLAREIEHSKELLEYSLFE | not soluble
MGSDKIHHHHHHENLYFQGMRFLAYFGHLNIDVLISVDSIPREGSVNVKDLRPRFGGTAGNFAIVAQKFRIPFDLYSAVGMKTHREYLAMIESMGINTGHVEKFEDESGPICYIATDGKKQVSFMHQGAMAAWAPQLADEYEYVHFSTGPNYLDMAKSIRSKIIFDPSQEIHKYSKDELKKFHEISYMSIFNDHEYRVFREMTGLSSPKVTTIVTNGERGSSLFMDGKKYDFPAIPSSGDTVGAGDSFRAGLYLALYNRRSIEKGMIYGTIIAHHVIDDGIENFSLNMEDLERETENYRRMFTKRS | soluble
GPGSMTNFSPAKCEMDALFLTSAGTDGHPLAQPFWSSSRSSLPTFDAHRRGTARGRLQNPALIDSIRRSEGSRVGQDTCRYMQAAAASSQKAVHQLLSRLQTYRSFKPFLSPPAPYRDNLFTDDRGFSNFHGPSYGRGSTATVSRDQLWQMVDGILDTSVAQLLQHNAEGHFIMTLQSTLGLEAPISTAKSGTVIESRKAATPAIKGGATELASEERTPAGGPRQPLPPALQKTAVMSSFAPASALADRWALDHPSATAAAIEEQHHAWAKFEQQRQRTSRCFYLQAMQEQLDVLQAEQARDAADTTHSPPSRGDRSHRYLVDMHSPSDSEDAVAKTEEERQQALWHTFHDGPVLGVGASESLHETALGVPGIVSAYLESTDLQDWLHCSWAHRTHRHESAALRIQCAYRVYRARCKVREMRYERRQAFLASLSAERKARQVWDLALQVQKDTTTTTSGTDSTLRALQFFINKVNAVVAKHRARKQYQQRQDAEICRYAATRIQAVYRGHRTRAFVTELRHPEIVALRKHLQQENCAKLIQTCWRRYTAQRQWWRARHAACVLQSMYRCYAARRMLAERRYQRSLEASAELTKFAVQRIERWYASFLAARNAIGRAHVAELLMLQRVCRGYQGRHGVQKERRLSRFRFAVRTIEQRRWRVMEVREAIERRAALSATNAAKRTASMRDDAAVTIQRAWRQRRVLHVC | soluble
MGSDKIHHHHHHMDRYPPFGFVRAVPIASSGNMTGESISNIATALVVGGGIGGMATAISLAERGVTVDLVDLDPEWRVYGAGITITGPTLRAYRRLGMLDEIKHKGAITSKTRLFRYDGTHMLDLDEPVIEEGLPATGGIMRPVLHHIMQKRVRELEIPVRLGLTVDALENVQGGVDVRFSDRTARRYDLVVGADSVFSRVRDLAFAHMGPAQPTGQGCWRISIRKPPGLDMGEFFLGHANPCGITACGPDTVYMWMLTPHVERDSHMDDEELFVTLKALLADFGGNAGWIRDNMTREDWINYRPLAAALQPRDWFNGRIVLVGDAVHATTPHLASGAGMAVESGIVLAEELARAGDVESALRAYQERRFDRCRDVIETSVAVGRLQLEHGDPQVHAKMLEGALGRLNQPF | not soluble
MKKMLVLLFVCLLVLAGCSSKSEPQGGGAAKKAEPKVMKMAVATSKDRSLTKGLYKFAEIVEKETNGSIKVEVYPDGQLGGDVAVFEALKMGTIQGSTMSTGPIASFAPRIGVLDLPFLFKDRETAYKVLDGKIGQDLLNDLPSVGVIGLNYWENGFRHLTNNKREVKSVDDIKGLKIRTLENDLHIDLWKELGATPVPMVFTELFTALEQHVVDGQENPVGNVAINKFYEVQKYLTKTGHVYNASPLLISKKFWDTLTDKEKDIIKKAAEEARDYQRKLNQEEDEKMFDYLKQQGMVITELSPEEKQKFVEKVQPIYQKYAPKFGQDLVNELINAGK | not soluble
MNNSNLAAARNLIQVVTGEWKSRCVYVATRLGLADLIESGIDSDETLAAAVGSDAERIHRLMRLLVAFEIFQGDTRDGYANTPTSHLLRDVEGSFRDMVLFYGEEFHAAWTPACEALLSGTPGFELAFGEDFYSYLKRCPDAGRRFLLAMKASNLAFHEIPRLLDFRGRSFVDVGGGSGELTKAILQAEPSARGVMLDREGSLGVARDNLSSLLAGERVSLVGGDMLQEVPSNGDIYLLSRIIGDLDEAASLRLLGNCREAMAGDGRVVVIERTISASEPSPMSVLWDVHLFMACAGRHRTTEEVVDLLGRGGFAVERIVDLPMETRMIVAARA | soluble
MRNEEKRALRRELRGRRSQMGRDVRAAATVKINHLLKRYIKKGRKIGVYWPMGKELRLDGFVRAAQKRGAELYLPYIEPRSRRMWFTPYPADGVKQERKRGRAKLHVPQFAGRKKRVHDLNLLLVPVVGMDRLGYRLGQAGGYYDATLSAMKYRLQAKTVGVGFACQLVDRLPVEAHDRSLDGFVSEAGILCF | not soluble
MRRHAIILAAGKGTRMKSKKYKVLHEVAGKPMVEHVLESVKGSGVDQVVTIVGHGAESVKGHLGERSLYSFQEEQLGTAHAVQMAKSHLEDKEGTTIVVCGDTPLITKETLETLIAHHEDANAQATVLSASIQQPYGYGRIVRNASGRLERIVEEKDATQAEKDINEISSGIFAFNNKTLFEKLTQVKNDNAQGEYYLPDVLSLILNDGGIVEVYRTNDVEEIMGVNDRVMLSQAEKAMQRRTNHYHMLNGVTIIDPDSTYIGPDVTIGSDTVIEPGVRINGRTEIGEDVVIGQYSEINNSTIENGACIQQSVVNDASVGANTKVGPFAQLRPGAQLGADVKVGNFVEIKKADLKDGAKVSHLSYIGDAVIGERTNIGCGTITVNYDGENKFKTIVGKDSFVGCNVNLVAPVTIGDDVLVAAGSTITDDVPNDSLAVARARQTTKEGYRK | not soluble
MGSDKIHHHHHHMYYRPADGHGLPHNPFNAIVSPRPIGWISTRGEGGGDNLAPYSFFNAVAYEPPQVMFSSTSAKEDRGDTKDSVANIRETGVFCVNIVEYAARDAMNETSGPWPATEDEFQRAGIERADCTEIPCSRVASAPANLECRVTQIIKLEGAHNFAVFGEVVGVHIRDDVLVDGHFDVTRFNPLTRMGYRDYSVIRDVFSLKRPGE | not soluble
MIILNIPLFKGLTLEQIEDMKNKHCMTEKKYKKNSFIFRAGDIVHEIGIVLEGSINIEMIDMWDNKSILSNIDVGQIFAESYALCNEPMMVDAVATKDSTILMLNMRQIFAPINNSASWYNTFTYNLLVLSTRKNLTLSTRIFCTSSKSVRGRVLTYLSNQSIKHNNTEFQIPFNRQQMADYLNLDRSALSKELGKMQDEGIITFNKNRFKLNINYDSEF | not soluble
